Values belong to the binder of their own block, whether it stands above or below them.
Experiments:
mCherry-FKBP-LAP1 = mCherry-FKBP-LAP1 (UniProt P62942 2-108); test: cell-based or functional assay
FKBP-LAP1 = FKBP-LAP1 (UniProt P62942 1-108, limits assumed); test: cell-based or functional assay
FKBP-LAP1, sequence (P62942 other isoform, or with tags, fused parts or gaps limits assumed): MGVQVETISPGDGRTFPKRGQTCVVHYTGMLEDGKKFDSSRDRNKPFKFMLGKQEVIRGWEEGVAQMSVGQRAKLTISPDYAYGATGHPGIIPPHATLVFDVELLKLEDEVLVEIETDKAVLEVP

mCherry-FKBP-LAP1, sequence (P62942 other isoform, or with tags, fused parts or gaps): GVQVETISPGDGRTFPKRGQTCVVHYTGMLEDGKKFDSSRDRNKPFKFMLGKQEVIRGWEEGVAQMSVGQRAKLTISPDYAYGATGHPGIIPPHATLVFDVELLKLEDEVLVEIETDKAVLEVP
FKBP-LAP1, P62942, sequence (P62942 whole entry, looked up): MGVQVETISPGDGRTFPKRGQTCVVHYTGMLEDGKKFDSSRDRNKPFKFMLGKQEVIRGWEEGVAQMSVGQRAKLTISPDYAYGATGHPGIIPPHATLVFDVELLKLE

minimum concentration of mCherry-FKBP-LAP1 required for a signal-to-background ratio >2:1 (mCherry-FKBP-LAP1): 6 µM
B1: FRB-LplAW37V (other)
chain: ILWHEMWHEGLEEASRLYFGERNVKGMFEVLEPLHAMMERGPQTLKETSFNQAYGRDLMEAQEWCRKYMKSGNVKDLTQAWDLYYHVFRRISKSTLRLLISDSYDPWFNLAVEECIFRQMPATQRVLFLVRNADTVVIGRAQNPWKECNTRRMEEDNVRLARRSSGGGAVFHDLGNTCFTFMAGKPEYDKTISTSIVLNALNALGVSAEASGRNDLVVKTVEGDRKVSGSAYRETKDRGFHHGTLLLNADLSRLANYLNPDKKKLAAKGITSVRSRVTNLTELLPGITHEQVCEAITEAFFAHYGERVEAEIISPNKTPDLPNFAETFARQSSWEWNFGQAPAFSHLLDERFTWGGVELHFDVEKGHITRAQVFTDSLNPAPLEALAGRLQGCLYRADMLQQECEALLVDFPEQEKELRELSAWMAGAVR

+/- rapamycin signal-to-background ratio of lipoylation, anti-lipoic acid immunoblot, purified proteins at 10 µM each (FKBP-LAP1): > 12 ratio (:1) | signal-to-background ratio of lipoylation in COS7 cells (+/- 100 nM rapamycin), cell lysis and immunoblot (FKBP-LAP1): 15 ratio (:1) | signal-to-noise ratio of lipoylation in COS-7 cells with 3 minutes of lipoic acid treatment (FKBP-LAP1): 2.5 ratio (:1)
B2: FRB-LplA (other)
chain: ILWHEMWHEGLEEASRLYFGERNVKGMFEVLEPLHAMMERGPQTLKETSFNQAYGRDLMEAQEWCRKYMKSGNVKDLTQAWDLYYHVFRRISKSTLRLLISDSYDPWFNLAVEECIFRQMPATQRVLFLWRNADTVVIGRAQNPWKECNTRRMEEDNVRLARRSSGGGAVFHDLGNTCFTFMAGKPEYDKTISTSIVLNALNALGVSAEASGRNDLVVKTVEGDRKVSGSAYRETKDRGFHHGTLLLNADLSRLANYLNPDKKKLAAKGITSVRSRVTNLTELLPGITHEQVCEAITEAFFAHYGERVEAEIISPNKTPDLPNFAETFARQSSWEWNFGQAPAFSHLLDERFTWGGVELHFDVEKGHITRAQVFTDSLNPAPLEALAGRLQGCLYRADMLQQECEALLVDFPEQEKELRELSAWMAGAVR

B3: LplAW37V (protein)
chain: STLRLLISDSYDPWFNLAVEECIFRQMPATQRVLFLVRNADTVVIGRAQNPWKECNTRRMEEDNVRLARRSSGGGAVFHDLGNTCFTFMAGKPEYDKTISTSIVLNALNALGVSAEASGRNDLVVKTVEGDRKVSGSAYRETKDRGFHHGTLLLNADLSRLANYLNPDKKKLAAKGITSVRSRVTNLTELLPGITHEQVCEAITEAFFAHYGERVEAEIISPNKTPDLPNFAETFARQSSWEWNFGQAPAFSHLLDERFTWGGVELHFDVEKGHITRAQVFTDSLNPAPLEALAGRLQGCLYRADMLQQECEALLVDFPEQEKELRELSAWMAGAVR
Km of the enzyme for LAP1 (HPLC assay, ligation of coumarin probe to purified FKBP-LAP1) (FKBP-LAP1, P62942): 681 ± 168 µM

— patent US20120129159A1 (MIT, published 2012)
